T1: hu-M-IL1RAP construct, positions S21-T367 (extracellular domain of the membrane form of human IL1RAP) (human, UniProt Q9NPH3 21-367)
T1 construct: Biotinylated when captured on the Biacore chip
T1 sequence: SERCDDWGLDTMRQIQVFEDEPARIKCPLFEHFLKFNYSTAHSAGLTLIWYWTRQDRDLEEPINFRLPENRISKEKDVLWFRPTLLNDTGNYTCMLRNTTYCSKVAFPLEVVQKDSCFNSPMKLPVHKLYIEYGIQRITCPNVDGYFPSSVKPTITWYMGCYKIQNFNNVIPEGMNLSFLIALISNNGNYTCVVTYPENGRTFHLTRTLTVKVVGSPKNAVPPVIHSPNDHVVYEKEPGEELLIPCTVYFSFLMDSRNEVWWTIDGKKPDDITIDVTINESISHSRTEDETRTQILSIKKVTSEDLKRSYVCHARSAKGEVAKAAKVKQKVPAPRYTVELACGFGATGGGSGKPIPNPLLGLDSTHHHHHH

T2: hu-M-IL1RAP-D3 construct, positions K238-T367 (human)
T2 chain: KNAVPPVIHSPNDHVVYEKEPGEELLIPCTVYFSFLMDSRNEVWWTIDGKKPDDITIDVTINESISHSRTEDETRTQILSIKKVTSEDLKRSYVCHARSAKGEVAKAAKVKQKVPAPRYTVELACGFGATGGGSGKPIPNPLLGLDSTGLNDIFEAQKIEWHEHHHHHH

T3: hu-S-IL1RAP construct, positions S21-Q356 (soluble human IL1RAP) (human, UniProt Q9NPH3 21-350)
T3 sequence: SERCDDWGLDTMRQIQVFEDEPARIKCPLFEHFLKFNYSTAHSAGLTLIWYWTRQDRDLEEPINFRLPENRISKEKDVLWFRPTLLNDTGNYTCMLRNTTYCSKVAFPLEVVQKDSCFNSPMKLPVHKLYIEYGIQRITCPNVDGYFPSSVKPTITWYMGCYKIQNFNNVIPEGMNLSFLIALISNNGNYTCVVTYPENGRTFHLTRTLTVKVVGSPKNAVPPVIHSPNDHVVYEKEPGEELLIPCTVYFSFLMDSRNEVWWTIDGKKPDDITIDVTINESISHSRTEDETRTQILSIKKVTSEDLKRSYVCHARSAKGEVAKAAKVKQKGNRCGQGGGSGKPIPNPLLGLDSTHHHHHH

T4: mu-M-IL1RAP construct, positions S21-T367 (mouse, UniProt Q61730 21-367)
T4 construct: also called mo-M-IL1RAP; mouse-M-IL1RAP
T4 sequence: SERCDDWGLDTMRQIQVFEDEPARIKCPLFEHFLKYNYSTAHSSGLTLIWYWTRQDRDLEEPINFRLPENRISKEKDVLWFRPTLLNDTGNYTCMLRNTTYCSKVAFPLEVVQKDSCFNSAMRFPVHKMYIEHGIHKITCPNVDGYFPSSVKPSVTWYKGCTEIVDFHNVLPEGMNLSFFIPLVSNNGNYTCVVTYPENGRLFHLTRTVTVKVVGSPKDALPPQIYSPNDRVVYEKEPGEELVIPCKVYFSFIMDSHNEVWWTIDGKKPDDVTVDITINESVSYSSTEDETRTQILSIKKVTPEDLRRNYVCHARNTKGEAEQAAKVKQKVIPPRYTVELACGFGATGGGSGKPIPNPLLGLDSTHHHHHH

T5: cyno-M-IL1RAP construct, positions S21-T367 (cynomolgus monkey, UniProt P59822 21-367 (rhesus entry))
T5 construct: Biotinylated when captured on the Biacore chip; also called cy-M-IL1RAP
T5 sequence: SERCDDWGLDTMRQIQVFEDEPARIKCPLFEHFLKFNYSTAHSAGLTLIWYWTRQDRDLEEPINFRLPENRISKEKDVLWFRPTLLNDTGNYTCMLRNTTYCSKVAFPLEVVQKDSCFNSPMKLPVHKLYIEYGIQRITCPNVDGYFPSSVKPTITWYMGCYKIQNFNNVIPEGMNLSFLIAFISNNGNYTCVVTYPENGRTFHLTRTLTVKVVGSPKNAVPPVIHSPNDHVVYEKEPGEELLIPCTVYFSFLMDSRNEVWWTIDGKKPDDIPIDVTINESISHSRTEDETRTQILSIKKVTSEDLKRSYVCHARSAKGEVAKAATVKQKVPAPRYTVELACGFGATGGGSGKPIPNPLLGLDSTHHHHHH

T6: human IL1RAP (hu-IL1RAP) on human cells (human, UniProt Q9NPH3 21-570)
T6 sequence: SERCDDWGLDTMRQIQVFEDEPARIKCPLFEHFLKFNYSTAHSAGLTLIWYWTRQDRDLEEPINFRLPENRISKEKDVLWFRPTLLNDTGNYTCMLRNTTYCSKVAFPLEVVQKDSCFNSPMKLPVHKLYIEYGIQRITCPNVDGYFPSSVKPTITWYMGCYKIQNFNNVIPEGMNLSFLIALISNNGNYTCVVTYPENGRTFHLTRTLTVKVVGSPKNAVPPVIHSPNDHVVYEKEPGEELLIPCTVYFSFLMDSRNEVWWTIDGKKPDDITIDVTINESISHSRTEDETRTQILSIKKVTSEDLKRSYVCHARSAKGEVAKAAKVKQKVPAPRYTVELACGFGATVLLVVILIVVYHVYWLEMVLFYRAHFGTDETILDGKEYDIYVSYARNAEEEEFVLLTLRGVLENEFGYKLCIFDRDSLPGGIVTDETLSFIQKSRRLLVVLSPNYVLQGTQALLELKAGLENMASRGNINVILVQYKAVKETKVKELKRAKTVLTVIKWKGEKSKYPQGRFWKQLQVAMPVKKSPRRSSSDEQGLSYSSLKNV


Experiments:
[1] = target: T1, hu-M-IL1RAP construct, positions …; test: ELISA, mAb at 10 nM
Protocol: (§1) After removing the coating solution, unspecific binding was blocked by adding 200 μL of assay/blocking solution containing 1% bovine serum albumin (BSA) in phosphate buffered saline (PBS) pH 7.4 (ELISA diluent) and incubation at room temperature for one hour with agitation or overnight at 4° C. without agitation. Plates were then washed three times with 300 μL of PBS, 0.05% TWEEN®-20 (wash buffer). 100 μL of culture supernatant from individual hybridoma clones (or purified antibodies at the indicated concentration) was added to individual wells followed by incubation at room temperature for one hour with agitation. […] The plate was incubated at room temperature for one hour with agitation, washed six times with wash buffer and developed for 3-10 minutes by adding 50 μL/well of tetramethylbenzidine (TMB) microwell peroxidase substrate (Scytek Laboratories, Inc., Logan, UT, USA; catalogue number TM1999).
(§2) Binding domain mapping: Binding domain mapping of the 15 purified antibodies was carried out using the above-described ELISA assay with the following IL1RAP polypeptide constructs coated at 1 μg/ml on the assay plates: hu-M-IL1RAP, hu-M-IL1RAP-D1, hu-M-IL1RAP-D1D2, and hu-M-IL1RAP-D3.

[2] = target: T2, hu-M-IL1RAP-D3 construct, positions …; test: ELISA, mAb at 10 nM
Protocol: as §1, §2

[3] = target: T3, hu-S-IL1RAP construct, positions …; test: ELISA, purified mAb
Protocol: as §1

[4] = target: T1, hu-M-IL1RAP construct, positions …; test: ELISA, purified mAb
Protocol: as §1

[5] = target: T4, mu-M-IL1RAP construct, positions …; test: ELISA, purified mAb
Protocol: as §1

[6] = target: T5, cyno-M-IL1RAP construct, positions …; test: ELISA, purified mAb
Protocol: as §1

[7] = target: T6, human IL1RAP (hu-IL1RAP) on human cells; test: cell-based or functional assay
[8] = target: T1, hu-M-IL1RAP construct, positions …; test: ELISA, hybridoma supernatant
Protocol: as §1

[9] = target: T6, human IL1RAP (hu-IL1RAP) on human cells; test: cell-based or functional assay; remark: listed apart in the source
[10] = target: T1, hu-M-IL1RAP construct, positions …; test: BLI (OCTET), mAb on AMC sensor, 25 C
Protocol: (§3) The BLI experimental format immobilizes the antibody on a biolayer surface with the IL1RAP antigen in solution. […] All samples were placed in black 96-well plates and the experiment was performed at 25° C. […] The biosensors were equilibrated in experimental buffer at 25° C. for ten minutes prior to starting the experiment.
(§4) The kinetics experiment was performed with the following steps, where the step name, solution and time are listed: Baseline (buffer—60 seconds), Loading (antibody—200 seconds), Baseline 2 (buffer—minimum 120 seconds), Association (analyte—200-300 seconds) and Dissociation (buffer—1000 seconds). The BLI signal resulting from analyte association and dissociation of the antigens from the immobilized antibody was analyzed using the OCTET® Data Analysis software (Pall ForteBio). First, a reference subtraction was performed on all recorded traces using the reference well (biosensor that underwent the same steps as experimental wells but no analyte for the Association step), then all the traces were aligned to the beginning of the Association step.

[11] = target: T5, cyno-M-IL1RAP construct, positions …; test: BLI (OCTET), mAb on AMC sensor, 25 C
Protocol: as §3, §4

[12] = target: T6, human IL1RAP (hu-IL1RAP) on human cells; test: cell-based or functional assay; remark: listed apart in the source
[13] = target: T6, human IL1RAP (hu-IL1RAP) on human cells; test: cell-based or functional assay; remark: listed apart in the source
[14] = target: T1, hu-M-IL1RAP construct, positions …; test: BLI (OCTET), mAb captured, 25 C
Protocol: All samples were placed in black 96-well plates and the experiment was performed at 25° C. […] The biosensors were equilibrated in experimental buffer at 25° C. for ten minutes prior to starting the experiment.
The resulting BLI signal from analyte association and dissociation from the immobilized antibody was analyzed using the Octet Data Analysis software (Pall ForteBio). First, a reference subtraction was performed on all recorded traces using the reference well (biosensor that underwent the same steps as experimental wells but no analyte for the Association step), then all the traces were aligned to the beginning of the Association step.

Binder | A450 [1] | A450 [2] | EC50 [3] | EC50 [4] | binding result [5] | EC50 [6] | HEK-Blue, IL-1β, % inhibition at 100 nM [7] | HEK-Blue, IL-33, % inhibition at 100 nM [7] | A450 [8] | HEK-Blue SEAP, IL-1β, % inhibition (supernatant) [9] | HEK-Blue SEAP, IL-33, % inhibition (supernatant) [9] | also measured
10A11 (purified mAb from hybridoma 10A11) (antibody, V domains shown, Mouse hybridoma mAb) VH: EVQLQQSGAELVKPGASVRLSCTSSGFNIKDYFMHWVKQRTEQGLEWVGRIDPEDGETQYAPNFQDKATITVDTSSNTVYLQLSSLTSEDTAVYYCFRPLYYGNSPWFAYWGQGTLVTVSP VL: DIQMTQTTSSLSASLGDRVTISCRASQDISNYLNWYQQKPDGTVKLLIYYTSTLHSGVPSRFSGSGSGTDYSLTISNLEPEDIATYYCHQYSKFPPTFGSGTKLEIK | 1.18 A450 | 1.4 A450 | 0.035 nM | 0.039 nM | no binding (tested: 20 nM (highest tested)) | 0.032 nM | 72% | 56% | 0.99 A450 | 53% | 51% | –
11C5(Hy) (purified mAb from the 11C5 hybridoma) (antibody, V domains shown, Mouse hybridoma mAb; also called 11C5(Hy) mAb; mAb 11C5(Hy)) VH: EVQLVESGGGLVKPGGSLKLSCAASGFTFSNYAMSWVRQTPEKRLEWVATVTEGGDYNYCLDDVKGRFTISRDNANDNLYLQMSHLKSEDSARYYCARDRWPYFFDYWGQGTTLTVSS VL: DIQMTQSPASLSVSVGETVTITCRASENIYSNLAWYQQKQGRSPQLLVYGAKNLADGVPSRFSGSGSGTQYSLNINSLQSEDFGTYYCQHFWTTPRTFGGGTKLEIK | 1.23 A450 | 1.44 A450 | 0.029 nM | 0.026 nM | no binding (tested: 20 nM (highest tested)) | 0.024 nM | 99% | 93% | 1.44 A450 | 84% | 65% | Kd [10]: 0.219 nM; koff [10]: 0.000103 s⁻¹; kon [10]: 469000 M⁻¹ s⁻¹; Kd [11]: 0.142 nM; koff [11]: 5.74e-05 s⁻¹; kon [11]: 413000 M⁻¹ s⁻¹; HEK-Blue, IL-1α, IC50 [12]: 4.7 nM; HEK-Blue, IL-1β, IC50 [12]: 1 nM; HEK-Blue, IL-33, IC50 [12]: 3.71 nM; HEK-Blue, IL-36α, IC50 [12]: 2.52 nM; HEK-Blue, IL-36β, IC50 [12]: 0.981 nM; HEK-Blue, IL-36γ, IC50 [12]: 0.665 nM
13D8 (purified mAb from hybridoma 13D8) (antibody, V domains shown, Mouse hybridoma mAb) VH: EVQLVESGGGLVKPGGSLKLSCTASGFTFSNYAMSWVRQTPEKRLEWVATISDGGNYTYYPDNVKGRFTISRDIAKNNLYLQMSHLKSEDTAMYYCARDRWPYFFDFWGQGTTLTVSS VL: DIQMTQSPASLSVSVGETVTITCRASDNIYSNLAWYQEKQGKSPQLLVYGATNLADGVPSRFSGSGSGTQYSLKINSLQSEDFGSYYCQHFWTTPRSFGGGTKLELK | 1.12 A450 | 1.46 A450 | 0.035 nM | 0.039 nM | no binding (tested: 20 nM (highest tested)) | 0.032 nM | 89% | 69% | 1.01 A450 | 48% | 33% | –
c11C5_C59Y (C59Y variant of c11C5) (antibody, IgG1, V domains shown, Murine VL and VH, human CL and IgG1 CH1-CH3 domains with effectorless N297G) VH: EVQLVESGGGLVKPGGSLKLSCAASGFTFSNYAMSWVRQTPEKRLEWVATVTEGGDYNYYLDDVKGRFTISRDNANDNLYLQMSHLKSEDSARYYCARDRWPYFFDYWGQGTTLTVSS VL: DIQMTQSPASLSVSVGETVTITCRASENIYSNLAWYQQKQGRSPQLLVYGAKNLADGVPSRFSGSGSGTQYSLNINSLQSEDFGTYYCQHFWTTPRTFGGGTKLEIK | – | – | – | – | – | – | – | – | – | – | – | NK cells, IL-33+IL-12 stimulated IFN-γ, IC50 [13]: 2.9 nM; PHLF, IL-1α stimulated IL-8, IC50 [13]: 3.96 nM; PHLF, IL-36β stimulated IL-8, IC50 [13]: 0.284 nM; monocytes, IL-1β stimulated IL-6, IC50 [13]: 0.733 nM; Kd [14]: 0.446 nM
